Reference: patent US20190264171A1, “DIFFERENTIATION OF PLURIPOTENT STEM CELLS INTO CORNEAL CELLS” (TAMPEREEN YLIOPISTO, priority 2016, published 2019)

Test system: human pluripotent stem cells cultured in feeder free conditions
Assay: Corneal epithelial differentiation of pluripotent stem cells cultured in feeder free conditions
Type: cell-based
Description: Feeder-free culture, xeno-free culture of human pluripotent stem cells was based on the use of recombinant Laminin-521 (Biolamina, Sweden) extracellular matrix protein coating and defined, xeno-free culture medium, the Essential 8™ Flex Medium (Life Technologies). The pluripotent stem cells were transferred to the culture system from the standard feeder cell based culture system by manually cutting undifferentiated colony parts with scalpel and plating to ln-521 coated (0.75-1.8 μg/cm^2 overnight at +4° C.) culture plates. The cells are allowed to grow near confluency with medium changed 3-4 times a week, and passaged with TrypLE™ Select Enzyme as single cells twice a week.
Differentiation of pluripotent stem cells cultured on feeder cells to corneal epithelial cells with the induction method disclosed in EP 2828380 comprising TGF-beta inhibitor, Wnt inhibitor and a fibroblast growth factor (10 μM SB-505124+10 μM IWP-2, 50 ng/ml bFGF), followed by differentiation in Cnt-30 epithelial medium on collagen IV matrix, yielded at best >90% p63 positive cells with correct corneal epithelial morphology.
However, prominent neuronal differentiation and cell detachment was recurrently observed as the induction method disclosed in EP 2828380 was used.
The human pluripotent stem cells cultured in the feeder free culture system as described above were differentiated to corneal epithelial cells by detaching the pluripotent cells with TrypLE™ Select Enzyme for 4 min at +37° C. On Day 0, embryoid bodies were created with overnight incubation with 5 μM Blebbistatin (Sigma, B05601) or 10 μM Y-27632 dihydrochloride (R&D Systems, 1254) in a xeno-free culture medium containing: Knockout-Dulbecco's Modified Eagle's Medium (ko-DMEM) supplemented with 15% Xeno-Free Knockout Serum Replacement (XF-ko-SR), 2 mM GlutaMax (all from ThermoFisher Scienfic), 1% MEM Eagle Non-Essential Amino acid solution (NEAA, Cambrex Bio Science), 50 U/ml penicillin/streptomycin (Cambrex Bio Science), 0.1 mM ß-mercaptoethanol (ThermoFisher Scienfic). […]

Question: Which “cell survival on omitting the substance from the first phase induction medium” value (IWP-2 omitted from induction medium, collagen IV + laminin-521 matrix) does the source give for `Cc1ccc2nc(NC(=O)CSc3nc4c(c(=O)n3-c3ccccc3)SCC4)sc2c1` [IWP-2, reference compound] here?
Answer: The value was “notably enhanced cell survival”.

B1: BMP-4: bone morphogenetic protein 4 (Peprotech) (protein, UniProt P12644 293-408, looked up)
Bone morphogenetic protein 4: SPKHHSQRARKKNKNCRRHSLYVDFSDVGWNDWIVAPPGYQAFYCHGDCPFPLADHLNSTNHAIVQTLVNSVNSSIPKACCVPTELSAISMLYLDEYDKVVLKNYQEMVVEGCGCR
Question: With B1 as the molecule, how does the “corneal epithelial cell morphology and marker expression” value (25 ng/ml BMP-4 for 2 to 3 days after initial induction) read?
Answer: The value was “best result of most cells with correct corneal epithelial cell morphology and marker expression”.

Question: What about the “epithelial morphology and marker expression after additional induction” value (BMP-4 induction (induction phase 3) after SB-505124/bFGF induction, total of 20-30 days of differentiation) of the same molecule?
Answer: Its value is “best result with most cells having correct epithelial morphology and marker expression”.
